Data: patent US20220089698A1 (published 2022)
Substitutions are numbered along the chain they refer to.

B1: 1.1.35-1 (antibody, human IgG1, kappa, V domains shown)
VH: QVQLLQSGAAVTKPGASVRVSCEASGYNIRDYFIHWWRQAPGQGLQWVGWINPKTGQPNNPRQFQGRVSLTRHASWDFDTFSFYMDLKALRSDDTAVYFCARQRSDYWDFDVWGSGTQVTVSS
VL: DIQMTQSPSSLSASVGDRVTITCQANGYLNWYQQKPGKAPKLLIYDGSNLETGVPSRFSGSRWGQEYTLTISSLQPEDIATYFCQVYEFVGPGTNLDIKR
B2: 1.34.35-1 (antibody, human IgG1, kappa, V domains shown)
VH: B1 VH with L5V, A10E, T12K, E23K, S69T, S105T
VL: B1 VL
B3: 1.32.35-1 (antibody, human IgG1, kappa, V domains shown)
VH: B1 VH with L5V, A10E, S105T
VL: B1 VL
B4: 1.33.35-1 (antibody, human IgG1, kappa, V domains shown)
VH: B1 VH with L5V, A10E, T12K, E23K, S69T, V97T
VL: B1 VL
B5: 1.35.35-1 (antibody, human IgG1, kappa, V domains shown)
VH: QVQLVQSGAEVKKPGASVRVSCKASGYNIRDYFMHWWRQAPGQGLQWVGWINPKTGQPNNPRQFQGRVTMTRHASWDFDTFSFYMDLSRLRSDDTATYFCARQRTDYWDFDVWGQGTMVTVSS
VL: B1 VL
B6: 1.31.35-1 (antibody, human IgG1, kappa, V domains shown)
VH: B1 VH with L5V, A10E, V97T
VL: B1 VL
B7: 1.36.35-1 (antibody, human IgG1, kappa, V domains shown)
VH: B5 VH with F83A
VL: B1 VL
B8: 1.33.34-1 (antibody, human IgG1, kappa)
heavy: QVQLVQSGAEVKKPGASVRVSCKASGYNIRDYFIHWWRQAPGQGLQWVGWINPKTGQPNNPRQFQGRVTLTRHASWDFDTFSFYMDLKALRSDDTATYFCARQRSDYWDFDVWGSGTQVTVSSASTKGPSVFPLAPSSKSTSGGTAALGCLVKDYFPEPVTVSWNSGALTSGVHTFPAVLQSSGLYSLSSVVTVPSSSLGTQTYICNVNHKPSNTKVDKKVEPKSCDKTHTCPPCPAPELLAGPDVFLFPPKPKDTLMISRTPEVTCVVVDVSHEDPEVKFNWYVDGVEVHNAKTKPREEQYNSTYRVVSVLTVLHQDWLNGKEYKCKVSNKALPLPEEKTISKAKGQPREPQVYTLPPSREEMTKNQVSLTCLVKGFYPSDIAVEWESNGQPENNYKTTPPVLDSDGSFFLYSKLTVDKSRWQQGNVFSCSVLHEALHSHYTQKSLSLSPGK
light: DIQMTQSPSSLSASVGDTVTITCQANGYLNWYQQRRGKAPKLLIYDGSNLERGVPSRFSGRRWGQEYTLTISSLQPEDIATYFCQVYEFVTPGTRLDIKRTVAAPSVFIFPPSDEQLKSGTASVVCLLNNFYPREAKVQWKVDNALQSGNSQESVTEQDSKDSTYSLSSTLTLSKADYEKHKVYACEVTHQGLSSPVTKSFNRGEC
B9: 1.34.34-1 (antibody, human IgG1, kappa)
heavy: B8 heavy with T97V, S105T
light: B8 light
B10: 1.5.1-1 (antibody, human IgG1, kappa)
heavy: B8 heavy with E10A, K12T, T69S, T97V
light: B8 light with N49K, T68N, S72N, S73N, T91V, I98L
B11: 1.3.1-1 (antibody, human IgG1, kappa)
heavy: B8 heavy with Q3S, V5L, E10A, K12T, K23E, T69S, T97V
light: B8 light with N49K, T68N, S72N, S73N, T91V, I98L
B12: 1.9.1-1 (antibody, human IgG1, kappa)
heavy: B8 heavy with T69S, T97V
light: B8 light with N49K, T68N, S72N, S73N, T91V, I98L
B13: 1.2.2-1 (antibody, human IgG1)
heavy: B8 heavy with V5L, K23E, T69S, T97V, Q118M
VL: DIQMTQSPSSLSASVGDTVTITCQANGYLNWYQQKPGKAPKLLIYDGSKLERGVPSRFSGRRWGQEYNLTINNLQPEDIATYFCQVYEFVVPGTKVDIK
B14: 1.36.34-1 (antibody, human IgG1, kappa)
heavy: B8 heavy with I34M, L70M, F83A, K88S, A89R, S105T, S115Q, Q118M
light: B8 light
B15: 1.34.36-1 (antibody, human IgG1, kappa)
heavy: B8 heavy with T97V, S105T
light: B8 light with T18R, R35K, R36P, R52T, R61S, R95N
B16: 1.36.36-1 (antibody, human IgG1, kappa)
heavy: B8 heavy with I34M, L70M, F83A, K88S, A89R, S105T, S115Q, Q118M
light: B8 light with T18R, R35K, R36P, R52T, R61S, R95N
B17: 1.31.36-1 (antibody, human IgG1, kappa)
heavy: B8 heavy with K12T, K23E, T69S
light: B8 light with T18R, R35K, R36P, R52T, R61S, R95N
B18: 1.7.1-1 (antibody, human IgG1, kappa)
heavy: B8 heavy with V5L, K23E, T69S, T97V
light: B8 light with N49K, T68N, S72N, S73N, T91V, I98L
B19: 1.1.36-1 (antibody, human IgG1, kappa)
heavy: B8 heavy with V5L, E10A, K12T, K23E, T69S, T97V
light: B8 light with T18R, R35K, R36P, R52T, R61S, R95N
B20: Antibody A-1 (antibody, human IgG1, kappa)
heavy: B8 heavy with V5L, E10A, K12T, K23E, T69S, T97V
light: B8 light with N49K, T68N, S72N, S73N, T91V, I98L
B21: 1.32.36-1 (antibody, human IgG1, kappa)
heavy: B8 heavy with K12T, K23E, T69S, T97V, S105T
light: B8 light with T18R, R35K, R36P, R52T, R61S, R95N
B22: 1.33.36-1 (antibody, human IgG1, kappa)
heavy: B8 heavy
light: B8 light with T18R, R35K, R36P, R52T, R61S, R95N
B23: 1.2.1-1 (antibody, human IgG1, kappa)
heavy: B8 heavy with V5L, K23E, T69S, T97V, Q118M
light: B8 light with N49K, T68N, S72N, S73N, T91V, I98L
B24: 1.4.1-1 (antibody, human IgG1, kappa)
heavy: B8 heavy with E10A, K12T, K23E, T69S, T97V
light: B8 light with N49K, T68N, S72N, S73N, T91V, I98L
B25: 1.6.1-1 (antibody, human IgG1, kappa)
heavy: B8 heavy with V5L, K12T, K23E, T69S, T97V
light: B8 light with N49K, T68N, S72N, S73N, T91V, I98L
B26: 1.10.1-1 (antibody, human IgG1, kappa)
heavy: B8 heavy with V5L, E10A, K12T, K23E, I34M, T69S, T97V
light: B8 light with N49K, T68N, S72N, S73N, T91V, I98L
B27: 1.8.1-1 (antibody, human IgG1, kappa)
heavy: B8 heavy with K12T, K23E, T69S, T97V
light: B8 light with N49K, T68N, S72N, S73N, T91V, I98L
B28: 1.35.34-1 (antibody, human IgG1, kappa)
heavy: B8 heavy with I34M, L70M, K88S, A89R, S105T, S115Q, Q118M
light: B8 light
B29: 1.35.36-1 (antibody, human IgG1, kappa)
heavy: B8 heavy with I34M, L70M, K88S, A89R, S105T, S115Q, Q118M
light: B8 light with T18R, R35K, R36P, R52T, R61S, R95N

These binders were tested against HIV gp120 Bal (HIV) (assay: single-point ELISA; further: test concentration or dose not given here).
In the case of B1, the “ELISA (A450)” value is reported as 0.96 A450.
In the case of B2, the “ELISA (A450)” value is reported as 0.94 A450.
For B3, the “ELISA (A450)” value was 0.89 A450.
With B4 the “ELISA (A450)” value was 1.03 A450.
In the case of B5, the “ELISA (A450)” value is reported as 0.88 A450.
With B6 the “ELISA (A450)” value was 0.9 A450.
For B7, the “ELISA (A450)” value was 0.89 A450.
For B8, the “ELISA (A450)” value was 0.95 A450.
With B9 the “ELISA (A450)” value was 0.89 A450.
For B10, the “ELISA (A450)” value was 0.92 A450.
With B11 the “ELISA (A450)” value was 0.97 A450.
In the case of B12, the “ELISA (A450)” value is reported as 1.08 A450.
With B13 the “ELISA (A450)” value was 0.91 A450.
In the case of B14, the “ELISA (A450)” value is reported as 1.01 A450.
B15 was tested, and the “ELISA (A450)” value was 0.94 A450.
B16 was tested, and the “ELISA (A450)” value was 1.12 A450.
For B17, the “ELISA (A450)” value was 1.06 A450.
For B18, the “ELISA (A450)” value was 0.98 A450.
In the case of B19, the “ELISA (A450)” value is reported as 0.93 A450.
With B20 the “ELISA (A450)” value was 0.91 A450.
With B21 the “ELISA (A450)” value was 0.92 A450.
In the case of B22, the “ELISA (A450)” value is reported as 0.94 A450.
In the case of B23, the “ELISA (A450)” value is reported as 0.93 A450.
In the case of B24, the “ELISA (A450)” value is reported as 1.04 A450.
With B25 the “ELISA (A450)” value was 0.95 A450.
In the case of B26, the “ELISA (A450)” value is reported as 0.95 A450.
For B27, the “ELISA (A450)” value was 0.86 A450.
For B28, the “ELISA (A450)” value was 1 A450.
In the case of B29, the “ELISA (A450)” value is reported as 0.85 A450.

These binders were tested against HIV gp120 CAAN (HIV) (assay: single-point ELISA; further: test concentration or dose not given here).
In the case of B1, the “ELISA (A450)” value is reported as 0.75 A450.
In the case of B2, the “ELISA (A450)” value is reported as 0.77 A450.
For B3, the “ELISA (A450)” value was 0.59 A450.
In the case of B4, the “ELISA (A450)” value is reported as 0.81 A450.
In the case of B5, the “ELISA (A450)” value is reported as 0.67 A450.
B6 was tested, and the “ELISA (A450)” value was 0.77 A450.
In the case of B7, the “ELISA (A450)” value is reported as 0.36 A450.
B8 was tested, and the “ELISA (A450)” value was 0.95 A450.
For B9, the “ELISA (A450)” value was 0.88 A450.
B10 was tested, and the “ELISA (A450)” value was 1.07 A450.
With B11 the “ELISA (A450)” value was 0.94 A450.
B12 was tested, and the “ELISA (A450)” value was 0.98 A450.
With B13 the “ELISA (A450)” value was 0.8 A450.
For B14, the “ELISA (A450)” value was 0.43 A450.
For B15, the “ELISA (A450)” value was 0.71 A450.
B16 was tested, and the “ELISA (A450)” value was 0.34 A450.
With B17 the “ELISA (A450)” value was 0.9 A450.
In the case of B18, the “ELISA (A450)” value is reported as 1.04 A450.
B19 was tested, and the “ELISA (A450)” value was 0.88 A450.
For B20, the “ELISA (A450)” value was 1.06 A450.
In the case of B21, the “ELISA (A450)” value is reported as 0.64 A450.
For B22, the “ELISA (A450)” value was 0.82 A450.
For B23, the “ELISA (A450)” value was 1.01 A450.
In the case of B24, the “ELISA (A450)” value is reported as 0.96 A450.
With B25 the “ELISA (A450)” value was 0.9 A450.
B26 was tested, and the “ELISA (A450)” value was 0.94 A450.
For B27, the “ELISA (A450)” value was 0.9 A450.
With B28 the “ELISA (A450)” value was 0.85 A450.
With B29 the “ELISA (A450)” value was 0.67 A450.
